Key:
[1] = molecular target: GmALMT12/QUAC1 (aluminum-activated malate transporter 12 / quick anion channel 1 from Glycine max) (Glycine max (soybean)); assay: cryo-EM structure
[2] = molecular target: GmALMT12/QUAC1 cytoplasmic helical domain (CHD, residues 221 to 537), wild type (Glycine max (soybean)); assay: SEC

stoichiometry N [1] | stoichiometry N [2] | Substance
2 | – | GmALMT12/QUAC1 (aluminum-activated malate transporter 12 / quick anion channel 1 from Glycine max) (natural protein)
– | 2 | GmALMT12/QUAC1 cytoplasmic helical domain (CHD, residues 221 to 537), wild type (domain or fragment)

— publication PMC8890709
